# T1: six histidine-tagged DGK5β (…OL KINASE 5, constitutive full-length isoform) (Arabidopsis thaliana, UniProt Q9C5E5 1-509)
# T1 construct: …OL KINASE 5, isoform DGK5β, Arabidopsis thaliana, AT2G20900; printed size 57.4 kDa; Ser506 lies in the CBD; also called HIS-DGK5β; source: E. coli BL21, purified (Ni-NTA agarose)
# T1 sequence (looked up): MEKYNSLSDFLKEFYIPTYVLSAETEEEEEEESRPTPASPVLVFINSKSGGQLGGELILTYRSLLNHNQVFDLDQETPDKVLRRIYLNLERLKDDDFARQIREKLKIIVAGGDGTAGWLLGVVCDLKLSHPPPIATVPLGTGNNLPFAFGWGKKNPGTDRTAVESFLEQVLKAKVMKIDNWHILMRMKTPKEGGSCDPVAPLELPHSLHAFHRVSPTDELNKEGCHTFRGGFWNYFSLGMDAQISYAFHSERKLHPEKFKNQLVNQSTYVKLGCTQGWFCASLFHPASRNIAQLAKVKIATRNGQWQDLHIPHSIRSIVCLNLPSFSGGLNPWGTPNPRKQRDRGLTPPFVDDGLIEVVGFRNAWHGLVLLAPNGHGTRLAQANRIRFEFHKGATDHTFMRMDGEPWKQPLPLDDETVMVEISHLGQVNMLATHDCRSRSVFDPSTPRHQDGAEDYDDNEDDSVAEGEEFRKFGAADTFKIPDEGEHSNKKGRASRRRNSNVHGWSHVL
# T2: glutathione S-transferase (GST)-tagged BIK1 (BOTRYTIS-INDUCED KINASE 1) (Arabidopsis thaliana (Mouse-ear cress), UniProt O48814)
# T2 chain: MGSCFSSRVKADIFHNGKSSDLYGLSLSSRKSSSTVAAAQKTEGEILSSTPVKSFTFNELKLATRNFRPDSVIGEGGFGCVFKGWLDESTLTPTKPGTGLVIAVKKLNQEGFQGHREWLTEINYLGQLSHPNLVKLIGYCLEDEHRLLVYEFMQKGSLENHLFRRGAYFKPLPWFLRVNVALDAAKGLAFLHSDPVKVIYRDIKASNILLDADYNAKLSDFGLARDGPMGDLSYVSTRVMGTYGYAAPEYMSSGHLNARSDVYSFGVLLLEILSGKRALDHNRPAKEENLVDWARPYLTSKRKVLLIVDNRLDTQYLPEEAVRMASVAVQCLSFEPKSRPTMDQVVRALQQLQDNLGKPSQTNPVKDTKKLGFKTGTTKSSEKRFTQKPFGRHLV
# B1: glutathione S-transferase (GST)-tagged BIK1 (BOTRYTIS-INDUCED KINASE 1) (enzyme, Arabidopsis thaliana, UniProt O48814 1-395, looked up)
# chain: T2 chain
# notes: BOTRYTIS-INDUCED KINASE 1 (BIK1), receptor-like cytoplasmic kinase, Arabidopsis thaliana, AT2G39660; also called GST-BIK1; source: E. coli BL21, purified (glutathione agarose)
# B2: six histidine-tagged DGK5β (…OL KINASE 5, constitutive full-length isoform) (protein)
# chain: T1 sequence (looked up)
# Experiments:
# [1] = target: T1, six histidine-tagged DGK5β (…OL KINASE …); assay: pull-down; GST-BIK1 immobilised on glutathione agarose beads, blocked with BSA, incubated with 2 μg HIS-DGK5β or HIS-DGK5α in 300 μl incubation buffer (20 mM Tris-HCl pH 7.5, 100 mM NaCl, 0.1 mM EDTA, 0.2% Triton X-100) at 4 °C for 1 h; washed with 300 mM NaCl buffer; immunoblot with α-HIS and α-GST; details: both partners purified
# [2] = target: T2, glutathione S-transferase (GST)-tagged …; assay: GST pull-down
Binder,binding result [1],binding result [2]
B1,binds,
B2,,binds
